Measured values reported in US20120276114A1, “IFN-GAMMA INHIBITORS IN THE TREATMENT OF MOTONEURON DISEASES” (UNIVERSITE D'AIX-MARSEILLE, priority 2009, published 2012).

Experiments:
[1] = system: sFasL-induced death of motoneurons; experiment: AAV-delivered COMP chimeric receptors: rescue of motoneurons from sFasL-induced death; format: cell-based, mice; details: AAV vectors; sFasL 50 ng/ml; survival 48 h later
Protocol: (§1) FIG. 7 evidences the efficiency of recombinant proteins IFNγR1-COMP, DcR3-COMP, and Fas-COMP (in the form of AAV viral vectors at 1.5×10^5 TU/ml), to interfere with death induced by their respective ligand(s) or cytokine (sFasL (50 ng/ml), sLight (50 ng/ml), IFNγ (250 ng/ml)), in contrast to the negative control (COMP). Cell survival was determined 48 h later as described in Example 4. All values are expressed as the means±S.D of three independent experiments.
(§2) The functionality of the dominant negatives in inhibiting Fas and LIGHT/IFNγ-induced death was evaluated in an isolated motoneurons culture system as described in Example 2. Embryonic motoneurons isolated from spinal cords of E12.5 CD1 mice were cultured for 6 h and then infected with 50 TU/ml of indicated with AAV-IFNγR1-COMP, AAV-DcR3-COMP, AAV-Fas-COMP, or AAV-COMP viral vectors. After 6 h of incubation the culture medium was replaced and motoneurons were treated 48 h later (when indicated) with effective doses of either sFasL (50 ng/ml), sLight (50 ng/ml) or IFNγ (250 ng/ml). Forty-eight hours later, survival was determined by direct counting of motoneurons (FIG. 7). […] On the other hand, IFNγ-triggered death was blocked by IFNγR1-COMP.

[2] = system: corresponding recombinant ligand (recombinant soluble LIGHT and IFNγ); experiment: immunoprecipitation of ligand-receptor complex from conditioned media of transduced glioma cell lines; format: binding; details: anti-HA immunoprecipitation, immunoblot
Protocol: The constructs were checked by sequencing. The efficacy of IFNγR1-COMP, DcR3-COMP, Fas-COMP, and COMP to be efficiently secreted by astrocytes and to specifically interact with their respective ligands were evaluated in vitro by immunoprecipitation assays. Glioma cell lines were transduced with vectors encoding IFNγR1-COMP, DcR3-COMP, Fas-COMP, or COMP and conditioned media collected. Recombinant soluble LIGHT and IFNγ were added to different conditioned media. Immunoprecipitation of ligand-receptor complex were performed using anti-hemagglutinin (HA) tag antibody, since these constructs include an HA tag at their C-terminus, and immunocomplexes analysed by SDS-PAGE followed by immunoblotting with antibodies to LIGHT, IFNγR1 and IFNγ.

[3] = system: sLIGHT-induced death of motoneurons; experiment: AAV-delivered COMP chimeric receptors: rescue of motoneurons from sLIGHT-induced death; format: cell-based, mice; details: AAV vectors; sLight 50 ng/ml; survival 48 h later
Protocol: as §1, §2

[4] = system: motoneurons
Protocol: Motoneuron survival was determined 48 h following treatment or not with LT-βR-Fc (100 ng/ml), Fas-Fc (1 μg/ml) or TNFR1-Fc (100 ng/ml) in combination or not with 250 ng/ml of IFNγ. The number of surviving motoneurons is expressed as a percentage of the number of motoneurons in the control condition (none).
Motoneurons from E12.5 spinal cord of CD1, Hb9::GFP, or SOD1^G93A embryos were isolated as described (Arce et al., 1999, J. Neurosci. Res., 55, 119-12) modified by Raoul et al., 2002, above, using iodixanol density gradient centrifugation. Motoneurons were plated on poly-ornithine/laminin-treated wells in the presence (or not when mentioned) of a cocktail of neurotrophic factors (0.1 ng/ml glial-derived neurotrophic factor (GDNF), 1 ng/ml brain-derived neurotrophic factor (BDNF), and 10 ng/ml ciliary neurotrophic factor (CNTF) in supplemented Neurobasal Medium™ (Invitrogen). When needed, motoneurons were electroporated before plating with the indicated expression constructs as previously described in Raoul et al., 2002, above. Motoneurons from E14 rat embryos were immunopurified using Ig192 mouse monoclonal anti-p75 antibody as previously described in Cassina et al., 2008, above and cultured in supplemented Neurobasal medium in the presence of GDNF (0.1 ng/ml). […] Cortical, hippocampal, sensory and striatal neurons were plated on poly-ornithine/laminin-treated wells and cultured in Neurobasal medium complemented with 1 mM sodium pyruvate, 2% B27 supplement (Invitrogen) at the exception of sensory neurons that were maintained in the same supplemented Neurobasal medium used for motoneurons but in the presence of 100 ng/ml nerve growth factor (NGF) instead of GDNF, BDNF and CNTF. Unless otherwise indicated, cell survival experiments were done on neurons isolated from CD1 mice. All neuronal types were seeded at the density of 1,500 cells/cm^2 and surviving neurons were directly counted under light or fluorescence microscopy.
Soluble human recombinant LIGHT and FasL, enhancer antibodies used for aggregating tagged sFasL, Fas-Fc, TNFR1-Fc, LT-βR-Fc, were purchased from Alexis Biochemicals. Soluble mouse recombinant LIGHT, functional goat polyclonal anti-LT-βR anti-HVEM antibodies were purchased from R&D systems. Soluble mouse recombinant IFNγ (source 1) was purchased from Calbiochem. Soluble mouse recombinant IFNγ (source 2) and soluble recombinant rat IFNγ were from PBL Biomedical laboratories. Neutralizing goat polyclonal anti-IFNγ antibodies (15027) were purchased from Sigma-Aldrich.

[5] = system: LIGHT; experiment: expression levels of LIGHT in motoneurons exposed to IFNγ; format: cell-based, mouse
Protocol: Neurons were plated at the density of 20,000 cells/cm^2 in 6-cm diameter dishes containing corresponding complemented Neurobasal medium (see above). Sodium dodecyl sulfate polyacrylamide gel electrophoresis (SDS-PAGE) and Western blotting were carried out on neurons, astrocytes (duplicates) and dissected lumbar spinal cords using protocol previously described in Raoul et al., 2005, above. Primary antibodies were anti-LT-βR (sc-8377, Santa Cruz Biotechnology, 1:500), anti-LIGHT (sc-28880, Santa Cruz Biotechnology, 1:500), anti-IFNγ (sc-52557, Santa Cruz Biotechnology, 1:500), anti-IFNγR1 (559911, BD Biosciences, 1:500), anti-IFNγR2 (ab31606, Abcam, 1:2000), anti-α-tubulin (B-5-1-2, Sigma-Aldrich, 1:20,000), anti-actin (AC-40, Sigma-Aldrich, 1:20,000). Proteins were detected using horseradish peroxidase (HRP)-conjugated secondary antibodies and visualized with the chemiluminescent HRP substrate (Millipore). Where indicated, immunoblot images were quantified and normalized relative to the α-tubulin or actin levels using the NIH ImageJ software.

[6] = system: IFNγ-triggered death of motoneurons; experiment: AAV-delivered COMP chimeric receptors: rescue of motoneurons from IFNγ-triggered death; format: cell-based, mice; details: AAV vectors; IFNγ 250 ng/ml; survival 48 h later
Protocol: as §1, §2

B1: DcR3-COMP: Extracellular part of DcR3 fused to COMP (SEQ ID NO: 17), decoy for both FasL and LIGHT, AAV-expressed (protein)
chain: MRALEGPGLSLLCLVLALPALLPVPAVRGVAETPTYPWRDAETGERLVCAQCPPGTFVQRPCRRDSPTTCGPCPPRHYTQFWNYLERCRYCNVLCGEREEEARACHATHNRACRCRTGFFAHAGFCLEHASCPPGAGVIAPGTPSQNTQCQPCPPGTFSASSSSSEQCQPHRNCTALGLALNVPGSSSHDTLCTSCTGFPLSTRVPGAEECERAVIDFVAFQDISIKRLQRLLQALEAPEGWGPTPRAGRAALQLKLRRRLTELLGAQDGALLVRLLQALRVARMPGLERSVRERFLPVHPQPQPKPQPKPEPEGDLAPQMLRELQETNAALQDVRELLRHRVKEITFLKNTVMECDACGYPYDVPDYA
modifications: AAV-expressed; Sequence for chimeric protein DcR3-COMP
rescue of motoneurons from sFasL-induced death [1]: rescued | interaction with corresponding recombinant ligand (immunoprecipitation) [2]: effectively interact | rescue of motoneurons from sLIGHT-induced death [3]: rescued

B2: IFNγ: Soluble mouse recombinant IFNγ (Calbiochem; PBL Biomedical laboratories) (protein, UniProt P01580 23-155, looked up)
Interferon gamma: HGTVIESLESLNNYFNSSGIDVEEKSLFLDIWRNWQKDGDMKILQSQIISFYLRLFEVLKDNQAISNNISVIESHLITTFFSNSKAKKDAFMSIAKFEVNNPQVQRQAFNELIRVVHQLLPESSLRKRKRSRC
cell-type restriction of the synergistic lethal effect of IFNγ on LIGHT-induced death ([4]; compared with cortical, hippocampal, sensory and striatal neurons): restricted to motoneurons | death of motoneurons ([4]; cultured motoneurons, survival 48 h after treatment): about 50% | effect on sFasL-induced death ([4]; motoneurons): no effect | effect on LIGHT killing effect ([4]; suboptimal dose of sLIGHT and increasing doses of IFNγ): substantially enhances | responsiveness of freshly isolated motoneurons to sLIGHT or agonistic anti-LT-βR antibodies ([4]; treated at 0, 24 or 72 h, IFNγ combined with sLIGHT or anti-LT-βR antibodies): responsive to sLIGHT or agonistic anti-LT-βR antibodies | expression levels of LIGHT [5]: significantly enhancing

B3: COMP: negative control generated by deleting approximately 80% of the extra-cellular part of Fas (secreted COMP) (protein)
chain: PQPQPKPQPKPEPEGDLAPQMLRELQETNAALQDVRELLRHRVKEITFLKNTVMECDACGYPYDVPDYA
modifications: amino acid sequence of a coiled-coil domain of cartilage oligomeric matrix protein
rescue of motoneurons from IFNγ-triggered death [6]: did not interfere | rescue of motoneurons from sFasL-induced death [1]: did not interfere | rescue of motoneurons from sLIGHT-induced death [3]: did not interfere

B4: IFNγR1-COMP: Extracellular part of IFNγR1 fused to COMP, HA-tagged (SEQ ID NO: 15), expressed from AAV vector (protein)
chain: MGPQAAAGRMILLVVLMLSAKVGSGALTSTEDPEPPSVPVPTNVLIKSYNLNPVVCWEYQNMSQTPIFTVQVKVYSGSWTDSCTNISDHCCNIYGQIMYPDVSAWARVKAKVGQKESDYARSKEFLMCLKGKVGPPGLEIRRKKEEQLSVLVFHPEVVVNGESQGTMFGDGSTCYTFDYTVYVEHNRSGEILHTKHTVEKEECNETLCELNISVSTLDSRYCISVDGISSFWQVRTEKSKDVCIPPFHDDRKERPQPQPQPKPQPKPEPEGDLAPQMLRELQETNAALQDVRELLRHRVKEITFLKNTVMECDACGYPYDVPDYA
modifications: HA tag; AAV-expressed; amino acid sequence of mouse IFN gamma R1-cartilage oligomeric matrix protein chimera
rescue of motoneurons from IFNγ-triggered death [6]: blocked | interaction with corresponding recombinant ligand (immunoprecipitation) [2]: effectively interact
